We go through 3 molecules from PMC5436826, “The PET and LIM1-2 domains of testin contribute to intramolecular and homodimeric interactions” (PLoS ONE, 2017).

Data set [1] has as its target T1, untagged PET^52-233 of testin (amino acids 52-233) (human, UniProt Q9UGI8-1 52-233).
T1 construct: pGEX-2TK; source: E. coli BL21(DE3) pLYSstar, purified on glutathione sepharose as GST fusion, GST removed with thrombin
T1 sequence (looked up): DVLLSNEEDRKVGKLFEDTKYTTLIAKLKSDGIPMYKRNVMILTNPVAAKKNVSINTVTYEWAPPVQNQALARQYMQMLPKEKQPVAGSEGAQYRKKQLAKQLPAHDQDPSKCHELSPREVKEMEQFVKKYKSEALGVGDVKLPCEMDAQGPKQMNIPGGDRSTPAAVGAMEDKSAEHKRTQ
The data set can be described thus: supernatans depletion assay; GST-LIM1-3 on glutathione-sepharose beads at 0.31-50 μM incubated with 2.5 μM PET^52-233 in buffer A, 1 hour at 4°C; unbound PET^52-233 quantified on Coomassie gels; fit 'one site saturation + nonspecific'. The note with it: both partners purified.

Data set [2] deals with the molecule itself. The data set can be described thus: SEC; untagged FL (1.5 mg or as specified) on calibrated Superdex 200 HR 10/30, buffer A, 0.8 ml/min; dimer and monomer fractions re-run; monomer-dimer equilibrium. Background: In gel filtration, larger molecules generally elute earlier.
Data set [3] addresses T2, GST-FL (glutathione-S-transferase fused full length testin) (Homo sapiens (Human), UniProt Q9UGI8-1).
T2 chain: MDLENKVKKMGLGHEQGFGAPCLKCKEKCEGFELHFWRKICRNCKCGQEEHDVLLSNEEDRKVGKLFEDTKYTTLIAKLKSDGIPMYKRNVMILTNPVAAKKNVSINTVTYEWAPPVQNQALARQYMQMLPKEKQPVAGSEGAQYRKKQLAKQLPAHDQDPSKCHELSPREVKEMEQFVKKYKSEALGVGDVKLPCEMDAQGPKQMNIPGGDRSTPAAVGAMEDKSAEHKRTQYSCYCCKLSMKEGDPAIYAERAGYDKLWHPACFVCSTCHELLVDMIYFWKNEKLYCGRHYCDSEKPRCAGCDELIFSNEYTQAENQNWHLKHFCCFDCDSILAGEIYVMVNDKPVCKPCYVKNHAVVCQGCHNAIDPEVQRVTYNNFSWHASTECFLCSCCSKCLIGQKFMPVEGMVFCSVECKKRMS
The data set can be described thus: GST pull-down with western blot. (In general: Immunoblotting shows a protein as a band on a membrane.)

B1: GST-LIM1-3 of testin (domain or fragment)
chain: YSCYCCKLSMKEGDPAIYAERAGYDKLWHPACFVCSTCHELLVDMIYFWKNEKLYCGRHYCDSEKPRCAGCDELIFSNEYTQAENQNWHLKHFCCFDCDSILAGEIYVMVNDKPVCKPCYVKNHAVVCQGCHNAIDPEVQRVTYNNFSWHASTECFLCSCCSKCLIGQKFMPVEGMVFCSVECKKRMS
modifications: zinc-bound LIM domains; exact start is only in Fig 1A, so limits are taken from the UniProt LIM1 start (234, adjacent to PET 52-233) to the C-terminus (421); GST omitted
In general, Kd refers to the constant that tells how readily two partners part at equilibrium. For B1, in data set [1], the Kd came out at 180 nM.

B2: untagged recombinant full length (FL) testin (natural protein, human, UniProt Q9UGI8-1 1-421, looked up)
chain: T2 chain
notes: testin, human, full length protein (residues 1-421), isoform 1 NP_056456.1; From pGEX-2TK; thrombin site between GST and FL; By SEC it is in a monomer-dimer equilibrium; also called non-tagged recombinant FL; source: E. coli BL21(DE3) pLYSstar, purified on glutathione sepharose as GST-FL, GST removed with thrombin
Broadly, the stoichiometry N is a count of units in the complex or per binding partner. B2: the “stoichiometry N” value in data set [2] was 2.

B3: ena/VASP-like protein (Evl), soluble untagged (protein)
chain: MSEQSICQARASVMVYDDTSKKWVPIKPGQQGFSRINIYHNTASNTFRVVGVKLQDQQVVINYSIVKGLKYNQATPTFHQWRDARQVYGLNFASKEEATTFSNAMLFALNIMNSQEGGPSSQRQVQNGPSPDEMDIQRRQVMEQHQQQRQESLERRTSATGPILPPGHPSSAASAPVSCSGPPPPPPPPVPPPPTGATPPPPPPLPAGGAQGSSHDESSMSGLAAAIAGAKLRRVQRPEDASGGSSPSGTSKSDANRASSGGGGGGLMEEMNKLLAKRRKAASQSDKPAEKKEDESQMEDPSTSPSPGTRAASQPPNSSEAGRKPWERSNSVEKPVSSILSRTPSVAKSPEAKSPLQSQPHSRMKPAGSVNDMALDAFDLDRMKQEILEEVVRELHKVKEEIIDAIRQELSGISTT
As for B3, the binding result in data set [3] was “binds”.
